Numbered stars: 1 amine (or outer) side, 2 acyl side, 3 side chain; on linkers, the order of the positions; unused ones are H or OH. Square brackets hold non-standard residues; d marks the D form. Ends that are not written are not given here. * marks the point of attachment. X2 = 4‑amino‑1‑((3-fluoro-4-methylbenzyl)glycyl)piperidine‑4‑carboxylic acid, Cc1ccc(CN(CC(=O)N2CCC(N[*:1])(C(=O)[*:2])CC2)[*:3])cc1F; X10 = 3‑(2-(2-(3-(4-iodophenyl)propanamido)ethoxy)ethoxy)propanoyl, O=C(CCc1ccc(I)cc1)NCCOCCOCCC(=O)*; X6 = 3‑(2-(2-(3-(p-tolyl)propanamido)ethoxy)ethoxy)propanoyl, Cc1ccc(CCC(=O)NCCOCCOCCC(=O)*)cc1; DOTA = O=C(O)CN1CCN(CC(=O)O)CCN(CC(=O)*)CCN(CC(=O)O)CC1; Butanoyl(4-(4-I-phenyl)) = O=C(CCCc1ccc(I)cc1)*; Api(1-amidino) = N=C(N)N1CCC(N)(C(=O)O)CC1; Phe(4-CN) = N#Cc1ccc(C[C@H](N)C(=O)O)cc1; d2Nal = N[C@H](Cc1ccc2ccccc2c1)C(=O)O; Palmitoyl = CCCCCCCCCCCCCCCC(=O)*; Cha = N[C@@H](CC1CCCCC1)C(=O)O; Lauroyl = CCCCCCCCCCCC(=O)*; Octanoyl = CCCCCCCC(=O)*; Ahx = NCCCCCC(=O)O; azaGly = NNC(=O)O; Sar = CNCC(=O)O
These binders were tested against human kisspeptin receptor (KISS1R) (human), Q969F8 (assay: radioligand competition, hKISS1R membranes; legend: A is <10 nM).
Sequence of human kisspeptin receptor (KISS1R) (human), Q969F8 (Q969F8 whole entry): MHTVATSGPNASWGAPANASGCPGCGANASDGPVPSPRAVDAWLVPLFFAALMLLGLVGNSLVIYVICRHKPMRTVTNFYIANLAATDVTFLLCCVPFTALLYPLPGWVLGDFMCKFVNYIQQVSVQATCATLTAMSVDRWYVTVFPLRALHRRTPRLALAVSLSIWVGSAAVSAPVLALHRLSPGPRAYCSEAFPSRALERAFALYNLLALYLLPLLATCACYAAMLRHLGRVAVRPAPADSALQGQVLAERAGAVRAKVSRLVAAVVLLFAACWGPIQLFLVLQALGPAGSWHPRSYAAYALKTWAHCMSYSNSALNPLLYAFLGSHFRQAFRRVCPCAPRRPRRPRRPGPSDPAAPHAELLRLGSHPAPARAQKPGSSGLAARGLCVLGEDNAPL

Ki | Binder
< 10 nM | X6-[dY]K(DOTA)NT[Cha][azaGly]L[4‑amino‑1‑carbamimidoylpiperidine‑4‑carboxylic acid(Sarcosine)]W-NH2 [Compound 357]
< 10 nM | X6-[dY]K(DOTA)NT[Cha][azaGly]L[4‑amino‑1‑carbamimidoylpiperidine‑4‑carboxylic acid(Sarcosine)][dW]-NH2 [Compound 356]
< 10 nM | Octanoyl-[dY][dK](DOTA)NTF[azaGly]L[4‑amino‑1‑carbamimidoylpiperidine‑4‑carboxylic acid(Sarcosine)]W-NH2 [Compound 354]
< 10 nM | {DOTA-Ahx}-[dK](4‑(p-tolyl)butanoyl)[dY][d2Nal]NTF[azaGly]L[Api(1-amidino)]W-NH2 [Compound 335]
< 10 nM | {1‑(3-fluoro-4-methylphenyl)‑4‑oxo‑8,11‑dioxa‑2,5‑diazatetradecan‑14‑oyl}-[dY]K(DOTA)NTF[azaGly]L[4‑amino‑1‑carbamimidoylpiperidine‑4‑carboxylic acid(Sarcosine)][dW]-NH2 [Compound 359]
< 10 nM | [N‑(3-fluoro-4-methylbenzyl)glycine][dY]K(DOTA)NTF[azaGly]L[4‑amino‑1‑carbamimidoylpiperidine‑4‑carboxylic acid(Sarcosine)][dW]-NH2 [Compound 360]
< 10 nM | Octanoyl-[dY]K(DOTA)NTF[azaGly]L[Api(1-amidino)]Y-NH2 (SMILES CCCCCCCC(=O)N[C@H](Cc1ccc(O)cc1)C(=O)N[C@@H](CCCCNC(=O)CN1CCN(CC(=O)O)CCN(CC(=O)O)CCN(CC(=O)O)CC1)C(=O)N[C@@H](CC(N)=O)C(=O)N[C@H](C(=O)N[C@@H](Cc1ccccc1)C(=O)NNC(=O)N[C@@H](CC(C)C)C(=O)NC1(C(=O)N[C@@H](Cc2ccc(O)cc2)C(N)=O)CCN(C(=N)N)CC1)[C@@H](C)O) [Compound 332]
< 10 nM | Palmitoyl-[dY]K(DOTA)NTF[azaGly]L[Api(1-amidino)]Y-NH2 (SMILES CCCCCCCCCCCCCCCC(=O)N[C@H](Cc1ccc(O)cc1)C(=O)N[C@@H](CCCCNC(=O)CN1CCN(CC(=O)O)CCN(CC(=O)O)CCN(CC(=O)O)CC1)C(=O)N[C@@H](CC(N)=O)C(=O)N[C@H](C(=O)N[C@@H](Cc1ccccc1)C(=O)NNC(=O)N[C@@H](CC(C)C)C(=O)NC1(C(=O)N[C@@H](Cc2ccc(O)cc2)C(N)=O)CCN(C(=N)N)CC1)[C@@H](C)O) [Compound 330]
< 10 nM | X10-[dY][dK](DOTA)NTF[azaGly]L[Api(1-amidino)]W-NH2 (SMILES CC(C)C[C@H](NC(=O)NNC(=O)[C@H](Cc1ccccc1)NC(=O)[C@@H](NC(=O)[C@H](CC(N)=O)NC(=O)[C@@H](CCCCNC(=O)CN1CCN(CC(=O)O)CCN(CC(=O)O)CCN(CC(=O)O)CC1)NC(=O)[C@@H](Cc1ccc(O)cc1)NC(=O)CCOCCOCCNC(=O)CCc1ccc(I)cc1)[C@@H](C)O)C(=O)NC1(C(=O)N[C@@H](Cc2c[nH]c3ccccc23)C(N)=O)CCN(C(=N)N)CC1) [Compound 334]
< 10 nM | Lauroyl-[dY]K(DOTA)NTF[azaGly]L[Api(1-amidino)]Y-NH2 (SMILES CCCCCCCCCCCC(=O)N[C@H](Cc1ccc(O)cc1)C(=O)N[C@@H](CCCCNC(=O)CN1CCN(CC(=O)O)CCN(CC(=O)O)CCN(CC(=O)O)CC1)C(=O)N[C@@H](CC(N)=O)C(=O)N[C@H](C(=O)N[C@@H](Cc1ccccc1)C(=O)NNC(=O)N[C@@H](CC(C)C)C(=O)NC1(C(=O)N[C@@H](Cc2ccc(O)cc2)C(N)=O)CCN(C(=N)N)CC1)[C@@H](C)O) [Compound 331]
< 10 nM | {DOTA}-G[dY][d2Nal]NTF[azaGly]L[X2]W-NH2 (SMILES Cc1ccc(CNCC(=O)N2CCC(NC(=O)[C@H](CC(C)C)NC(=O)NNC(=O)[C@H](Cc3ccccc3)NC(=O)[C@@H](NC(=O)[C@H](CC(N)=O)NC(=O)[C@@H](Cc3ccc4ccccc4c3)NC(=O)[C@@H](Cc3ccc(O)cc3)NC(=O)CNC(=O)CN3CCN(CC(=O)O)CCN(CC(=O)O)CCN(CC(=O)O)CC3)[C@@H](C)O)(C(=O)N[C@@H](Cc3c[nH]c4ccccc34)C(N)=O)CC2)cc1F) [Compound 365]
< 10 nM | {DOTA}-[Sar][Sar]F[azaGly]L[X2]W-NH2 (SMILES Cc1ccc(CNCC(=O)N2CCC(NC(=O)[C@H](CC(C)C)NC(=O)NNC(=O)[C@H](Cc3ccccc3)NC(=O)CN(C)C(=O)CN(C)C(=O)CN3CCN(CC(=O)O)CCN(CC(=O)O)CCN(CC(=O)O)CC3)(C(=O)N[C@@H](Cc3c[nH]c4ccccc34)C(N)=O)CC2)cc1F) [Compound 17]
< 10 nM | Octanoyl-[dY][dK](DOTA)NTF[azaGly]L[4‑amino‑1‑carbamimidoylpiperidine‑4‑carboxylic acid(Sarcosine)][dW]-NH2 [Compound 353]
< 10 nM | Palmitoyl-[dY]K(DOTA)NTF[azaGly]L[Api(1-amidino)]W-NH2 (SMILES CCCCCCCCCCCCCCCC(=O)N[C@H](Cc1ccc(O)cc1)C(=O)N[C@@H](CCCCNC(=O)CN1CCN(CC(=O)O)CCN(CC(=O)O)CCN(CC(=O)O)CC1)C(=O)N[C@@H](CC(N)=O)C(=O)N[C@H](C(=O)N[C@@H](Cc1ccccc1)C(=O)NNC(=O)N[C@@H](CC(C)C)C(=O)NC1(C(=O)N[C@@H](Cc2c[nH]c3ccccc23)C(N)=O)CCN(C(=N)N)CC1)[C@@H](C)O) [Compound 328]
< 10 nM | Lauroyl-[dY]K(DOTA)NTF[azaGly]L[Api(1-amidino)]W-NH2 (SMILES CCCCCCCCCCCC(=O)N[C@H](Cc1ccc(O)cc1)C(=O)N[C@@H](CCCCNC(=O)CN1CCN(CC(=O)O)CCN(CC(=O)O)CCN(CC(=O)O)CC1)C(=O)N[C@@H](CC(N)=O)C(=O)N[C@H](C(=O)N[C@@H](Cc1ccccc1)C(=O)NNC(=O)N[C@@H](CC(C)C)C(=O)NC1(C(=O)N[C@@H](Cc2c[nH]c3ccccc23)C(N)=O)CCN(C(=N)N)CC1)[C@@H](C)O) [Compound 329]
< 10 nM | Octanoyl-[dY][dK](DOTA)NT[Cha][azaGly]L[4‑amino‑1‑carbamimidoylpiperidine‑4‑carboxylic acid(Sarcosine)][dW]-NH2 [Compound 355]
< 10 nM | X6-[dY]K(DOTA)NTF[azaGly]L[Api(1-amidino)][Phe(4-CN)]-NH2 (SMILES Cc1ccc(CCC(=O)NCCOCCOCCC(=O)N[C@H](Cc2ccc(O)cc2)C(=O)N[C@@H](CCCCNC(=O)CN2CCN(CC(=O)O)CCN(CC(=O)O)CCN(CC(=O)O)CC2)C(=O)N[C@@H](CC(N)=O)C(=O)N[C@H](C(=O)N[C@@H](Cc2ccccc2)C(=O)NNC(=O)N[C@@H](CC(C)C)C(=O)NC2(C(=O)N[C@@H](Cc3ccc(C#N)cc3)C(N)=O)CCN(C(=N)N)CC2)[C@@H](C)O)cc1) [Compound 333]
< 10 nM | {DOTA-Ahx}-[dK](Butanoyl(4-(4-I-phenyl)))[dY][d2Nal]NTF[azaGly]L[Api(1-amidino)]W-NH2 (SMILES CC(C)C[C@H](NC(=O)NNC(=O)[C@H](Cc1ccccc1)NC(=O)[C@@H](NC(=O)[C@H](CC(N)=O)NC(=O)[C@@H](Cc1ccc2ccccc2c1)NC(=O)[C@@H](Cc1ccc(O)cc1)NC(=O)[C@@H](CCCCNC(=O)CCCc1ccc(I)cc1)NC(=O)CCCCCNC(=O)CN1CCN(CC(=O)O)CCN(CC(=O)O)CCN(CC(=O)O)CC1)[C@@H](C)O)C(=O)NC1(C(=O)N[C@@H](Cc2c[nH]c3ccccc23)C(N)=O)CCN(C(=N)N)CC1) [Compound 336]
< 10 nM | X6-[dY]K(DOTA)NT[Cha][azaGly]L[Api(1-amidino)]W-NH2 (SMILES Cc1ccc(CCC(=O)NCCOCCOCCC(=O)N[C@H](Cc2ccc(O)cc2)C(=O)N[C@@H](CCCCNC(=O)CN2CCN(CC(=O)O)CCN(CC(=O)O)CCN(CC(=O)O)CC2)C(=O)N[C@@H](CC(N)=O)C(=O)N[C@H](C(=O)N[C@@H](CC2CCCCC2)C(=O)NNC(=O)N[C@@H](CC(C)C)C(=O)NC2(C(=O)N[C@@H](Cc3c[nH]c4ccccc34)C(N)=O)CCN(C(=N)N)CC2)[C@@H](C)O)cc1) [Compound 326]
< 10 nM | X10-[dY]K(DOTA)NT[Cha][azaGly]L[Api(1-amidino)]W-NH2 (SMILES CC(C)C[C@H](NC(=O)NNC(=O)[C@H](CC1CCCCC1)NC(=O)[C@@H](NC(=O)[C@H](CC(N)=O)NC(=O)[C@H](CCCCNC(=O)CN1CCN(CC(=O)O)CCN(CC(=O)O)CCN(CC(=O)O)CC1)NC(=O)[C@@H](Cc1ccc(O)cc1)NC(=O)CCOCCOCCNC(=O)CCc1ccc(I)cc1)[C@@H](C)O)C(=O)NC1(C(=O)N[C@@H](Cc2c[nH]c3ccccc23)C(N)=O)CCN(C(=N)N)CC1) [Compound 327]
< 10 nM | X6-[dY][dK](DOTA)NT[Cha][azaGly]L[4‑amino‑1‑carbamimidoylpiperidine‑4‑carboxylic acid(Sarcosine)][dW]-NH2 [Compound 358]
< 10 nM | X6-[dY][dK](DOTA)NTF[azaGly]L[Api(1-amidino)]W-NH2 (SMILES Cc1ccc(CCC(=O)NCCOCCOCCC(=O)N[C@H](Cc2ccc(O)cc2)C(=O)N[C@H](CCCCNC(=O)CN2CCN(CC(=O)O)CCN(CC(=O)O)CCN(CC(=O)O)CC2)C(=O)N[C@@H](CC(N)=O)C(=O)N[C@H](C(=O)N[C@@H](Cc2ccccc2)C(=O)NNC(=O)N[C@@H](CC(C)C)C(=O)NC2(C(=O)N[C@@H](Cc3c[nH]c4ccccc34)C(N)=O)CCN(C(=N)N)CC2)[C@@H](C)O)cc1) [Compound 338]

Reference: patent publication US20250312499A1, “KISSPEPTIN RECEPTOR (KISS1R) TARGETED THERAPEUTICS AND USES THEREOF” (priority 2024, published 2025)
